Read-outs that look alike come from different tables or passages of the source.
Columns and labels:
CCR5-mTFP1 = CCR5-mTFP1 (UniProt P51681)
CD4-mRFP (human) = CD4-mRFP (human) (UniProt P01730); test: multicolour TIRF-dSTORM with interaction factor analysis
[1] = biological target: T1, CXCR4-mTFP1 (human), P61073; conditions: remark: other sources report otherwise
T1 chain: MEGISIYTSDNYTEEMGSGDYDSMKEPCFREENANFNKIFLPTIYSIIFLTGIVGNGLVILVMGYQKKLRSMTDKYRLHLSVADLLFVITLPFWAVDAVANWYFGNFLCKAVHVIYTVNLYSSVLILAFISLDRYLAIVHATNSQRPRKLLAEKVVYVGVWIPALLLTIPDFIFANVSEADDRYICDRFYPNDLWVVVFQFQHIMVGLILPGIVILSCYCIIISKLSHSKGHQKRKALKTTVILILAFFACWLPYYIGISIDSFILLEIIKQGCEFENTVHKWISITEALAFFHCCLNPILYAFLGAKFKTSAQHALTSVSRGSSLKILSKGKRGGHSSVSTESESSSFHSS

[2] = biological target: T1, CXCR4-mTFP1 (human), P61073; test: number and brightness; conditions: remark: other sources report otherwise
[3] = biological target: T2, CXCR4-eYFP (human), P61073; test: multicolour TIRF-dSTORM with interaction factor analysis; conditions: remark: other sources report otherwise
T2 chain: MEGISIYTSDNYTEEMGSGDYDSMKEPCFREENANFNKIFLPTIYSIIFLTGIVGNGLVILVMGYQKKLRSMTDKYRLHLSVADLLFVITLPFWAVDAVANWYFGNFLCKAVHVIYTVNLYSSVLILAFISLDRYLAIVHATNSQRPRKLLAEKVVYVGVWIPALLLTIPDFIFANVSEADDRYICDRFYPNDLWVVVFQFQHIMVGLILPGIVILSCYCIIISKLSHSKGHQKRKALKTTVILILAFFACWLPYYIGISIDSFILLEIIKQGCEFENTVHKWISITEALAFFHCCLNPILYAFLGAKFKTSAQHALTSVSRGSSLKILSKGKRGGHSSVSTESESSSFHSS

UniProt P51681, sequence (P51681 whole entry): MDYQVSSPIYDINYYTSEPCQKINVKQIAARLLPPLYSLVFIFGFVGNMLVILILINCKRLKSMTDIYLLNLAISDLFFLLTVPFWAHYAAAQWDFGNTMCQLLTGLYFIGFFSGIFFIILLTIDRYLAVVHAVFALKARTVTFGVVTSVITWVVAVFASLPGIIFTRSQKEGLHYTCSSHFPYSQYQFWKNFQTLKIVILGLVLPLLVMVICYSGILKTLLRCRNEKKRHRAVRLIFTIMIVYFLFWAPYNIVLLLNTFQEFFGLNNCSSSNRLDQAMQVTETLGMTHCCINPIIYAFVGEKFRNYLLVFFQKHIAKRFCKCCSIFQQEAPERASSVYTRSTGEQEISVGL

HIV-1 JR-FL Env on HIV_(JR-FL) virions (complex)
CCR5 molecules bound to a single Env trimer (CCR5-mTFP1): 2
probability of 3 CD4 molecules engaged with 1 Env spike (CD4-mRFP (human)): 0.36
probability of 4 CD4 molecules engaged with 1 Env spike (CD4-mRFP (human)): 0.1

B1: CXCR4-mTFP1, P61073 1-352 (receptor)
chain: MEGISIYTSDNYTEEMGSGDYDSMKEPCFREENANFNKIFLPTIYSIIFLTGIVGNGLVILVMGYQKKLRSMTDKYRLHLSVADLLFVITLPFWAVDAVANWYFGNFLCKAVHVIYTVNLYSSVLILAFISLDRYLAIVHATNSQRPRKLLAEKVVYVGVWIPALLLTIPDFIFANVSEADDRYICDRFYPNDLWVVVFQFQHIMVGLILPGIVILSCYCIIISKLSHSKGHQKRKALKTTVILILAFFACWLPYYIGISIDSFILLEIIKQGCEFENTVHKWISITEALAFFHCCLNPILYAFLGAKFKTSAQHALTSVSRGSSLKILSKGKRGGHSSVSTESESSSFHSS
stoichiometry N [1]: 2
stoichiometry N [2]: 2

B2: CXCR4-eYFP, P61073 1-352 (receptor)
chain: MEGISIYTSDNYTEEMGSGDYDSMKEPCFREENANFNKIFLPTIYSIIFLTGIVGNGLVILVMGYQKKLRSMTDKYRLHLSVADLLFVITLPFWAVDAVANWYFGNFLCKAVHVIYTVNLYSSVLILAFISLDRYLAIVHATNSQRPRKLLAEKVVYVGVWIPALLLTIPDFIFANVSEADDRYICDRFYPNDLWVVVFQFQHIMVGLILPGIVILSCYCIIISKLSHSKGHQKRKALKTTVILILAFFACWLPYYIGISIDSFILLEIIKQGCEFENTVHKWISITEALAFFHCCLNPILYAFLGAKFKTSAQHALTSVSRGSSLKILSKGKRGGHSSVSTESESSSFHSS
stoichiometry N [3]: 2

— article PMC7056357
